T1: synthetic peptide mimicking the IgA1 hinge region, …-NH2 (human)
T1 sequence (peptide, C-terminal amide): VTVPSPVPSTPAR


Tests used:
[1] = target: T1, synthetic peptide mimicking the IgA1 hinge region, …-NH2 (human)
[2] = target: IgA purified from human plasma (human); assay: SEC; Superdex 200 10/300 GL; independent runs of plasma IgA, of inactive IgAse1–7 + E540A and of a preincubated mixture of both

Row | Binder | cleavage of the hinge peptide after overnight incubation at 37 °C, MALDI-TOF mass spectrometry [1] [%] | Kd [2] [µM]
1 | IgAse1–4 (enzyme) MASKPDIKVGDYVKMGVYNNASILWRCVSIDNNGPLMLADKIVDTLAYDAKTNDNSNSKSHSRSYKRDDYGSNYWKDSNMRSWLNSTAAEGKVDWLCGNPPKDGYVSGVGAYNEKAGFLNAFSKSEIAAMKTVTQRSLVSHPEYNKGIVDGDANSDLLYYTDISEAVANYDSSYFETTTEKVFLLDVKQANAVWKNLKGYYVAYNNDGMAWPYWLRTPVTDCNHDMRYISSSGQVGRYAPWYSDLGVRPAFYLDSEYFVTTSGSGSQSSPYIGSAPNKQEDDYTISEPAEDANPDWNVSTEQSIQLTLGPWYSNDGKYSNPTIPVYTIQKTRSDTENMVVVVCGEGYTKSQQGKFINDVKRLWQDAMKYEPYRSYADRFNVYALCTASESTFDNGGSTFFDVIVDKYNSPVISNNLHGSQWKNHIFERCIGPEFIEKIHDAHIKKKCDPNTIPSGSEYEPYYYVHDYIAQFAMVVNTKSDFGGAYNNREYGFHYFISPSDSYRASKTFAHEFGHGLLGLGDEYSNGYLLDDKELKSLNLSSVEDPEKIKWRQLLGFRNTYTCRNAYGSKMLVSSYECIMRDTNYQFCEVCRLQGFKRMSQLVKDVDLYVATPEVKEYTGAYSKPSDFTDLETSSYYNYTYNRNDRLLSGNSKSRFNTNMNGKKIELRTVIQNISDKNARQLKFKMWIKHSDGSVATDSSGNPLQTVQTFDIPVWNDKANFWPLGALDHIKSDFNSGLKSCSLIYQIPSDAQLKSGDTVAFQVLDENGNVLADDNTETQRYTTVSIQYKFEDGSEIPNTAGGTFTVPYGTKLDLTPAKTLYDYEFIKVDGLNKPIVSDGTVVTYYYKN | < 1 | 
2 | IgAse1–7 + E540A (domain or fragment) MASKPDIKVGDYVKMGVYNNASILWRCVSIDNNGPLMLADKIVDTLAYDAKTNDNSNSKSHSRSYKRDDYGSNYWKDSNMRSWLNSTAAEGKVDWLCGNPPKDGYVSGVGAYNEKAGFLNAFSKSEIAAMKTVTQRSLVSHPEYNKGIVDGDANSDLLYYTDISEAVANYDSSYFETTTEKVFLLDVKQANAVWKNLKGYYVAYNNDGMAWPYWLRTPVTDCNHDMRYISSSGQVGRYAPWYSDLGVRPAFYLDSEYFVTTSGSGSQSSPYIGSAPNKQEDDYTISEPAEDANPDWNVSTEQSIQLTLGPWYSNDGKYSNPTIPVYTIQKTRSDTENMVVVVCGEGYTKSQQGKFINDVKRLWQDAMKYEPYRSYADRFNVYALCTASESTFDNGGSTFFDVIVDKYNSPVISNNLHGSQWKNHIFERCIGPEFIEKIHDAHIKKKCDPNTIPSGSEYEPYYYVHDYIAQFAMVVNTKSDFGGAYNNREYGFHYFISPSDSYRASKTFAHAFGHGLLGLGDEYSNGYLLDDKELKSLNLSSVEDPEKIKWRQLLGFRNTYTCRNAYGSKMLVSSYECIMRDTNYQFCEVCRLQGFKRMSQLVKDVDLYVATPEVKEYTGAYSKPSDFTDLETSSYYNYTYNRNDRLLSGNSKSRFNTNMNGKKIELRTVIQNISDKNARQLKFKMWIKHSDGSVATDSSGNPLQTVQTFDIPVWNDKANFWPLGALDHIKSDFNSGLKSCSLIYQIPSDAQLKSGDTVAFQVLDENGNVLADDNTETQRYTTVSIQYKFEDGSEIPNTAGGTFTVPYGTKLDLTPAKTLYDYEFIKVDGLNKPIVSDGTVVTYYYKNKNEEHTHNLTLVAAKAATCTTAGNSAYYTCDGCDKWFADATGSVEITDKTSVKIPAPGHTAGTEWKSDDTNHWHECTVAGCGVIIESTKSAHTAGEWIVDTPATATTAGTKHKECTVCHRVLETQPIPSTGTELKIIAGDNQIYNKASGSDVTITCNGDFAKFTGIKVDGSVVDSSNYTAVSGSTVLTLKASYLGTLTDGSHTITFVYTDGEANANLTVRTAGSGHIHDYGTEWKSNADNHWHECNCGDKKDEAAHSFKWVVDKEATATKKGSKHEECKICGYKRSAVEI |  | > 10

Reference: publication PMC12237041
